The term EC50 denotes the concentration at which the effect is half-maximal. Broadly, the Kd is the concentration at which binding is half-saturated. Low readings indicate tighter binding, high ones weaker binding.

The results in this text go back to patent EP4613780A1 (Adlai Nortye Biopharma Co., Ltd., dated 2025).

The target in test [1] is T1, human PD-L1 protein (Acro, PD1-H5258) (human, UniProt Q9NZQ7 19-238).
T1 construct: coated on the ELISA plate; also called human PDL1 antigen
Nature of the test: ELISA, coated human PD-L1. For orientation: ELISA stands for enzyme-linked immunosorbent assay.

Another test deals with hCD28 (Octet R8 analyte) (human, UniProt P10747 19-152, limits assumed). Nature of the test: BLI Octet R8, Protein A probe. On the technique in general: In BLI a coated tip is dipped into the sample, and binding shifts an interference pattern.
Chain of hCD28 (Octet R8 analyte) (P10747 19-152 limits assumed): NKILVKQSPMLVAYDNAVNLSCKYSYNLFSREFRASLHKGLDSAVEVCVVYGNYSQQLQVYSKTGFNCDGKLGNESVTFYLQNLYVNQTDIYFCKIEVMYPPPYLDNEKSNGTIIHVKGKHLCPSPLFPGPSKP
Test [2] deals with T2, hCTLA-4 (Octet R8 analyte) (human, UniProt P16410 36-161, limits assumed).
T2 sequence (looked up): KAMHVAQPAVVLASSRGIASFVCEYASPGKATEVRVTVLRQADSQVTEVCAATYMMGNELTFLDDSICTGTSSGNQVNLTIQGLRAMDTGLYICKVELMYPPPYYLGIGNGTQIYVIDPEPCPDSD
Description: BLI Octet R8, Protein A probe.

For test [3], the target named is hPD-L1 (Octet R8 analyte) (human, UniProt Q9NZQ7 19-238, limits assumed). Description: BLI Octet R8, Protein A probe.
Chain of hPD-L1 (Octet R8 analyte) (Q9NZQ7 19-238 limits assumed): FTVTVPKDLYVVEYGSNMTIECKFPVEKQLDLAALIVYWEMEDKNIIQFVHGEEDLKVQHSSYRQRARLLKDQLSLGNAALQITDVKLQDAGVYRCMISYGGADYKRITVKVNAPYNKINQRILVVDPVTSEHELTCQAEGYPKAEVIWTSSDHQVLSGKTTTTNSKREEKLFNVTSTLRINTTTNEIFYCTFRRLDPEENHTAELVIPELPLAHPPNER
Test [4] addresses T3, human CTLA4 protein (Acro, CT4-H52H9) (human, UniProt P16410 36-161).
T3 construct: coated on the ELISA plate; also called human CTLA4 antigen
T3 sequence (looked up): T2 sequence (looked up)
Nature of the test: ELISA, coated human CTLA4.

Test [5] addresses T4, human CD28 protein (Acro, CD8-H525a) (human, UniProt P10747 19-152).
T4 construct: coated on the ELISA plate; also called human CD28 antigen
Description: ELISA, coated human CD28.

The target in test [6] is PD-L1 on TCR activator PD-L1-CHO cells (BPS bioscience) (UniProt Q9NZQ7 19-290, limits assumed). Description: cell-based or functional assay.
Chain of PD-L1 on TCR activator PD-L1-CHO cells (BPS bioscience) (Q9NZQ7 19-290 limits assumed): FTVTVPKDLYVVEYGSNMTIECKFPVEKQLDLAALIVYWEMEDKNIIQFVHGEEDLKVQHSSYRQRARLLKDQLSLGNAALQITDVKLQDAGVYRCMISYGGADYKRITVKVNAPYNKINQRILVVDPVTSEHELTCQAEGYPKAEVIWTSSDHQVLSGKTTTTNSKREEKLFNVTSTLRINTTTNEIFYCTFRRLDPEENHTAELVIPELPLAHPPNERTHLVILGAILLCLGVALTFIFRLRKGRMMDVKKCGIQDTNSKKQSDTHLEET

T1 sequence (Q9NZQ7 19-238 limits assumed): as the sequence (Q9NZQ7 19-238 limits assumed) above
T4 sequence (P10747 19-152 limits assumed): as the sequence (P10747 19-152 limits assumed) above

B1: antibody Abs-16 (sugemalimab) (antibody, human IgG4 S228P, lambda, V domains shown)
VH: EVQLLESGGGLVQPGGSLRLSCAASGFTFSSYAMSWVRQAPGKGLEWVSGISGSGGFTYYADSVKGRFTISRDNSKNTLYLQMNSLRAEDTAVYYCAKPPRGYNYGPFDYWGQGTLVTVSS
VL: SYVLTQPPSVSVAPGQTARITCGGNNIGSKSVHWYQQKPGQAPVLVVYDDSDRPSGIPERFSGSNSGNTATLTISRVEAGDEADYYCQVWDSSSDHVVFGGGTKLTVLG
notes: anti-PD-L1 control antibody; also called Sugemalimab (CS1001)
In test [1], B1 yielded an EC50 of 0.0767 nM. Besides, the binding result is “no binding (tested: 50nM)” in the test with hCD28 (Octet R8 analyte), “no binding (tested: 50nM)” in test [2], “no binding” in test [4] and “no binding” in test [5]. Moreover, the Kd in test [3] came to 0.581 nM. In test [6], the “Jurkat-NFAT-Luc/CHO-PDL1 EC50” value worked out at 0.09 nM. Also, the “Top induction relative to 10nM sugemalimab” value in test [6] was 100%.
